Data taken from article PMC8085926.

Substrate: CCC(=O)SCCNC(=O)CCNC(=O)[C@H](O)C(C)(C)COP(=O)(O)OP(=O)(O)OC[C@H]1O[C@@H](n2cnc3c(N)ncnc32)[C@H](O)[C@@H]1OP(=O)(O)O
Assay: purified protein
Details: hydrolysis of propionyl-CoA to propionate; conditions only in supplement

B1: HiYciA (Haemophilus influenzae Rd KW20) (protein)
chain: MSANFTDKNGRQSKGVLLLRTLAMPSDTNANGDIFGGWIMSQMDMGGAILAKEIAHGRVVTVAVESMNFIKPISVGDVVCCYGQCLKVGRSSIKIKVEVWVKKVASEPIGERYCVTDAVFTFVAVDNNGRSRTIPRENNQELEKALALISEQPL
Km: 26.84 µM
kcat: 490 s⁻¹
kcat/Km: 1.83e+07 M⁻¹ s⁻¹

B2: PP_4975 (Pseudomonas putida KT2440) (protein)
chain: MNFHTRKWVKPEDLNPNGTLFGGSLLRWIDEEAAIYAIVQLGNQRVVTKYMSEINFVSASRQGDIIELGITATAFGRTSITLKCEVRNKITRKSILTVDKMVFVNLGEDGLPAAHGRTEIKYVQDQFPDSAVE
Km: 144.13 µM
kcat: 1300 s⁻¹
kcat/Km: 9.02e+06 M⁻¹ s⁻¹
